Where two headings read alike, the source gives them in different places.
T1: Rhesus (Macaca mulatta, UniProt A0A5F8A3G1)
T1 construct: full length, on the cell surface; the purified extracellular domain is 1.m23; also called rhesus γc protein, full length, on HEK-293 cells
T1 sequence (receptor chain): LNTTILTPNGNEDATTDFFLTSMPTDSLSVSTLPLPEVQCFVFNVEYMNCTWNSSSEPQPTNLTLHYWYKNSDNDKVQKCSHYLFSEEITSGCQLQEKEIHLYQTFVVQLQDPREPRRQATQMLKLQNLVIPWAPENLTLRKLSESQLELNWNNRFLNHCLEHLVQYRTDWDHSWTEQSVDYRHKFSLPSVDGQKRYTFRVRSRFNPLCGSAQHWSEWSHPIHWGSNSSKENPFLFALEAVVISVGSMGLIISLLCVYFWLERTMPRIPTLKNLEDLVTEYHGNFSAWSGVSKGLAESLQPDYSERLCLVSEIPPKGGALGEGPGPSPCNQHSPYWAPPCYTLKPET

T2: rabbit γc protein (extracellular domain), purified (rabbit (Oryctolagus cuniculus))
T2 construct: also called rabbit (Oryctolagus cuniculus) γc
T2 chain: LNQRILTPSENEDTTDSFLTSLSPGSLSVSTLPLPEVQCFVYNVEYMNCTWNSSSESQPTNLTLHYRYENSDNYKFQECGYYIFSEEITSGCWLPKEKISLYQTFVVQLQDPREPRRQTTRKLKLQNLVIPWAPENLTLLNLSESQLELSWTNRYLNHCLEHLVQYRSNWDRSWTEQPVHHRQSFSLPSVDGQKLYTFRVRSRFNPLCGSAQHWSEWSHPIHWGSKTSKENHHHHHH

T3: common marmoset γc protein (extracellular domain), purified (common marmoset (Callithrix jacchus), UniProt P31785 26-262 (human entry))
T3 construct: also called common marmoset (Callithrix jacchus) γc
T3 chain: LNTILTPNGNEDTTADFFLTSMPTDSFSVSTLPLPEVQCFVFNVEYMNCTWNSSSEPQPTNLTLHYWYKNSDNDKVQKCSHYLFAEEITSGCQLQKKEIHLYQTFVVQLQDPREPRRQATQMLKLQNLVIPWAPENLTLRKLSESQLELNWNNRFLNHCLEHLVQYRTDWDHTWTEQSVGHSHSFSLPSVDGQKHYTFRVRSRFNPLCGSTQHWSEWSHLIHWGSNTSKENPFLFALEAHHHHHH

T4: human γc protein (extracellular domain), purified (human (Homo sapiens), UniProt P31785 23-262)
T4 construct: Either purchased from Sino Biological or in-house generated; also called human common gamma chain; CD132; not shown: which was used i
T4 sequence: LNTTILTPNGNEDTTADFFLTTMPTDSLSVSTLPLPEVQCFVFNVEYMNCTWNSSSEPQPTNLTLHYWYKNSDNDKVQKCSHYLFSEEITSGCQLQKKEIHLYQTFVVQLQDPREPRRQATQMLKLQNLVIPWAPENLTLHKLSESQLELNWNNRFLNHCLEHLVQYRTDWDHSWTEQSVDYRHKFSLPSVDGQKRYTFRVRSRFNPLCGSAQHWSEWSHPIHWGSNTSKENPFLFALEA

T5: chimpanzee γc protein (extracellular domain), purified (chimpanzee (Pan troglodytes), UniProt P31785 23-262)
T5 construct: also called chimpanzee (Pan troglodytes) γc
T5 sequence: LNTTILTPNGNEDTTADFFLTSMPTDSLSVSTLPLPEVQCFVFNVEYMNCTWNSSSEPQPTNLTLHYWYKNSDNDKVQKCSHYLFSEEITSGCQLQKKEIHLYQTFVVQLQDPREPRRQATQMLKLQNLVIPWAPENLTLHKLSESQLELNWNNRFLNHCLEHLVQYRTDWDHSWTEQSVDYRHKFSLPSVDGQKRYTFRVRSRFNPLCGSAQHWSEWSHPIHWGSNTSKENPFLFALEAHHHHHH

T6: rhesus γc protein (extracellular domain), purified (rhesus (Macaca mulatta), UniProt P31785 23-254 (human entry))
T6 construct: also called rhesus (Macaca mulatta) γc
T6 chain: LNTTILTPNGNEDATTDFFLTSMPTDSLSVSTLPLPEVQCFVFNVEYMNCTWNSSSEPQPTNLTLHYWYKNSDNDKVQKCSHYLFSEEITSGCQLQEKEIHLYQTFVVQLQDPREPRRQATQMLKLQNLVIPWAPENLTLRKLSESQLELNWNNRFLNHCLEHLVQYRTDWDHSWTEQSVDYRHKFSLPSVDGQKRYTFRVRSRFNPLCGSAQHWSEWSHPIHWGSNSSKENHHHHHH

T7: cynomolgus γc protein (extracellular domain), purified (cynomolgus (Macaca fascicularis), UniProt P31785 23-254 (human entry))
T7 construct: Purchased from Sino Biological or in-house; also called cynomolgus (Macaca fascicularis) γc
T7 chain: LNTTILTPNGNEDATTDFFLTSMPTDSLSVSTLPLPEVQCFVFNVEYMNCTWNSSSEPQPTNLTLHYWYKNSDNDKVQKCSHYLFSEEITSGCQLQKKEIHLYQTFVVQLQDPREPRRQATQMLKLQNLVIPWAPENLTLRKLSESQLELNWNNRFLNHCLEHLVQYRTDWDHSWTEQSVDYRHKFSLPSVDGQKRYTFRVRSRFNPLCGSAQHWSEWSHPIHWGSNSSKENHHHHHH


Columns and labels:
[1] = biological target: T1, Rhesus; experiment: flow cytometry, FITC-hSM-05A on HEK-293 cells transfected with full-length rhesus γc, N=3
Procedure: In brief, hSM-05A was fluorescently labelled with FITC. HEK-293 cells were transfected with the plasmids expressing the full-length γc proteins from different species for 2 days before the incubation with the fluorescent antibodies for flow cytometry analyses. […] All antibodies were administrated at 33 nM (5 μg/ml). C=non-transfected control; Hu: Humans; Rh: Rhesus monkey; Cy: Cynomolgus; Ma: Common marmoset. N=3 for all groups.
The binding specificities of humanized anti-γc antibodies to native γc proteins were further evaluated by […] binding assay. In brief, human HEK-293 cells were transfected with plasmid expressing full length γc protein from human, rhesus, cynomolgus or common marmoset. Two days later, transfected cells or non-transfected controls were incubated with FITC-conjugated hSM-05A on ice for an hour before analysis by flow cytometry.

[2] = biological target: T2, rabbit γc protein (extracellular …); experiment: ELISA, strip coated with 1 µg/ml rabbit γc, antibody in 5-fold dilutions from 10 to 0.00064 µg/ml, OD 450 nm
Procedure: (§1) The ELISA strip was coated with 1 μg/ml γc protein from each species. Antibody was diluted 5-fold each from 10 μg/ml to 0.00064 μg/ml.
(§2) Humanized antibodies with back-mutation (hSM-05A and hSM-05E) were tested in the following assays. Binding affinities were investigated in the ELISA assays.

[3] = biological target: T3, common marmoset γc protein …; experiment: ELISA, strip coated with 1 µg/ml common marmoset γc, antibody in 5-fold dilutions from 10 to 0.00064 µg/ml, OD 450 nm
Procedure: as §1, §2

[4] = biological target: T4, human γc protein (extracellular …); experiment: ELISA, strip coated with 1 µg/ml human γc, antibody in 5-fold dilutions from 10 to 0.00064 µg/ml, OD 450 nm
Procedure: as §1

[5] = biological target: T5, chimpanzee γc protein (extracellular …); experiment: ELISA, strip coated with 1 µg/ml chimpanzee γc, antibody in 5-fold dilutions from 10 to 0.00064 µg/ml, OD 450 nm
Procedure: as §1

[6] = biological target: T6, rhesus γc protein (extracellular …); experiment: ELISA, strip coated with 1 µg/ml rhesus γc, antibody in 5-fold dilutions from 10 to 0.00064 µg/ml, OD 450 nm
Procedure: as §1

[7] = biological target: T7, cynomolgus γc protein (extracellular …); experiment: ELISA, strip coated with 1 µg/ml cynomolgus γc, antibody in 5-fold dilutions from 10 to 0.00064 µg/ml, OD 450 nm; curve near baseline up to about 0.08 µg/ml, rises to about 1.35 at 10 µg/ml, no upper plateau
Procedure: as §1

[8] = biological target: T2, rabbit γc protein (extracellular …); experiment: ELISA, strip coated with 1 µg/ml rabbit γc, antibody in 5-fold dilutions from 10 to 0.00064 µg/ml, OD 450 nm
Procedure: as §1

[9] = biological target: T6, rhesus γc protein (extracellular …); experiment: ELISA, strip coated with 1 µg/ml rhesus γc, antibody in 5-fold dilutions from 10 to 0.00064 µg/ml, OD 450 nm; curve near baseline up to about 0.4 µg/ml, rises to about 0.8 at 10 µg/ml, no upper plateau
Procedure: as §1, §2

[10] = biological target: T7, cynomolgus γc protein (extracellular …); experiment: ELISA, strip coated with 1 µg/ml cynomolgus γc, antibody in 5-fold dilutions from 10 to 0.00064 µg/ml, OD 450 nm; curve rises to about 1.6 at 10 µg/ml, no upper plateau
Procedure: as §1, §2

[11] = biological target: T4, human γc protein (extracellular …); experiment: ELISA, strip coated with 1 µg/ml human γc, antibody in 5-fold dilutions from 10 to 0.00064 µg/ml, OD 450 nm; remark: listed apart in the source
Procedure: as §1, §2

Row | Binder | binding result [1] | binding result [2] | EC50 [3] [µg/mL] | EC50 [4] [µg/mL] | EC50 [5] [µg/mL] | binding result [6] | EC50 [7] [µg/mL] | binding result [8] | EC50 [9] [µg/mL] | EC50 [10] [µg/mL] | EC50 [11] [µg/mL]
1 | hSM-05A, humanized anti-γc antibody with back-mutation (antibody, V domains shown, Full-length humanized antibody; also called humanized (h) SM-05A; hbSM-05A) VH: QVQLVQSGAEVLKPGASVKVSCKASGYTFTEYTMHWVKQARGQRLEWIGGIDPYNGGATYNQRFKGKATLTTDTSTSTAYMELRNLRSDDTAVYYCARRRLYYGNALDYWGQGTLVTVSS VL: DIVMTQSPLSLPVTPGEQASISCRSSQSLVHSNGNTYLHWYLQKPGQSPQLLIYKVSSRFSGVPDRFSGSGSGTDFTLKISRVEAEDVGVYFCSQTTHVPFTFGSGTKLEIKR | no binding (tested: 5 µg/ml (33 nM)) | no binding (tested: 10 µg/ml) | 0.04 | 0.02 | 0.06 | no binding (tested: 10 µg/ml) | 9.56 |  |  |  | 
2 | hSM-05E, humanized anti-γc antibody with back-mutation (antibody, V domains shown, Full-length humanized antibody; also called humanized SM-05E; hbSM-05E) VH: QVQLVQSGAEVLKPGASVKVSCKASGYTFTEYTMHWVKQARGQRLEWIGGIDPNTGGVTYNQKFKGKATLTTDTSTSTAYMELRNLRSDDTAVYYCARRRRYYGYALDYWGQGTLVTVSS VL: DIVMTQSPLSLPVTPGEQASISCRSSQSIVHSNGNTYLEWYLQKPGQSPQLLIYKVSNRFSGVPDRFSGSGSGTDFTLKISRVEAEDVGVYFCSQSTHVPFMFGSGTKLEIKR |  |  | 0.17 |  | 0.17 |  |  | no binding (tested: 10 µg/ml) | 6.3 | 5.78 | 0.02

Source: patent US20260209365A1, “ANTI-COMMON GAMMA CHAIN PROTEINS AND COMPOSITIONS OF MATTER” (SINOMAB BIOSCIENCE LIMITED, priority 2023, published 2026)
